Consider three molecules from US20110262424A1 (published 2011).

Test [1] deals with human von Willebrand factor (human) (UniProt P04275). Kind of test: SPR, Biacore 3000, vWF amine-coupled to CM5 chip, global fit to a simple interaction model. (In SPR one partner is held on a chip, and binding of the other changes the refractive index at the surface.)
For test [2], the target named is T1, human von Willebrand factor (human, UniProt P04275 764-2813, limits assumed).
T1 construct: The preparation used in the assay is not described; also called vWF
Described as above. How it is done:
The binding of human-cl rhFVIII to human von Willebrand factor was analyzed using surface plasmon resonance with the Biacore 3000 instrument. The recombinant factor VIII products X and Y derived from murine cell lines (murine-cl rhFVIII X and Y) were used as comparators.
The von Willebrand factor was immobilized through primary amines to the carboxymethylated dextran of a CM5 sensor chip. The binding data were globally fit to a simple interaction model yielding kinetic parameters and affinities. The kinetics in binding and affinity to von Willebrand factor were analyzed. Furthermore, a quantitative measure of the capacity of Human-cl rhFVIII to bind to von Willebrand factor in comparison with other recombinant factor VIII products was obtained.

What is called Kd is a measure of binding affinity in units of concentration. In general, koff refers to the first-order rate constant of dissociation. A word on the kon: it is a measure of how fast the partners come together. A lower kon goes with slower complex formation. Consider “murine-cl rhFVIII X (recombinant factor VIII product X derived from a murine cell line) (from UniProt P00451 20-2351)”, for which, in test [1], the Kd amounted to 0.32 nM, the off-rate constant (koff) is 0.00105 s⁻¹ and the on-rate constant (kon) was 3.3e+06 M⁻¹ s⁻¹.
In test [1], “murine-cl rhFVIII Y (recombinant factor VIII product Y derived from a murine cell line) (from UniProt P00451 20-2351)” registered a Kd of 0.34 nM, an off-rate (koff) of 0.00105 s⁻¹ and a kon of 3.1e+06 M⁻¹ s⁻¹.

B1: human cell line recombinant human factor VIII (human-cl rhFVIII), a human B-domain-deleted factor VIII protein produced in the human cell line HEK293F (other, UniProt P00451 20-2351, looked up)
chain: ATRRYYLGAVELSWDYMQSDLGELPVDARFPPRVPKSFPFNTSVVYKKTLFVEFTDHLFNIAKPRPPWMGLLGPTIQAEVYDTVVITLKNMASHPVSLHAVGVSYWKASEGAEYDDQTSQREKEDDKVFPGGSHTYVWQVLKENGPMASDPLCLTYSYLSHVDLVKDLNSGLIGALLVCREGSLAKEKTQTLHKFILLFAVFDEGKSWHSETKNSLMQDRDAASARAWPKMHTVNGYVNRSLPGLIGCHRKSVYWHVIGMGTTPEVHSIFLEGHTFLVRNHRQASLEISPITFLTAQTLLMDLGQFLLFCHISSHQHDGMEAYVKVDSCPEEPQLRMKNNEEAEDYDDDLTDSEMDVVRFDDDNSPSFIQIRSVAKKHPKTWVHYIAAEEEDWDYAPLVLAPDDRSYKSQYLNNGPQRIGRKYKKVRFMAYTDETFKTREAIQHESGILGPLLYGEVGDTLLIIFKNQASRPYNIYPHGITDVRPLYSRRLPKGVKHLKDFPILPGEIFKYKWTVTVEDGPTKSDPRCLTRYYSSFVNMERDLASGLIGPLLICYKESVDQRGNQIMSDKRNVILFSVFDENRSWYLTENIQRFLPNPAGVQLEDPEFQASNIMHSINGYVFDSLQLSVCLHEVAYWYILSIGAQTDFLSVFFSGYTFKHKMVYEDTLTLFPFSGETVFMSMENPGLWILGCHNSDFRNRGMTALLKVSSCDKNTGDYYEDSYEDISAYLLSKNNAIEPRSFSQNSRHQAYRYRRGEITRTTLQSDQEEIDYDDTISVEMKKEDFDIYDEDENQSPRSFQKKTRHYFIAAVERLWDYGMSSSPHVLRNRAQSGSVPQFKKVVFQEFTDGSFTQPLYRGELNEHLGLLGPYIRAEVEDNIMVTFRNQASRPYSFYSSLISYEEDQRQGAEPRKNFVKPNETKTYFWKVQHHMAPTKDEFDCKAWAYFSDVDLEKDVHSGLIGPLLVCHTNTLNPAHGRQVTVQEFALFFTIFDETKSWYFTENMERNCRAPCNIQMEDPTFKENYRFHAINGYIMDTLPGLVMAQDQRIRWYLLSMGSNENIHSIHFSGHVFTVRKKEEYKMALYNLYPGVFETVEMLPSKAGIWRVECLIGEHLHAGMSTLFLVYSNKCQTPLGMASGHIRDFQITASGQYGQWAPKLARLHYSGSINAWSTKEPFSWIKVDLLAPMIIHGIKTQGARQKFSSLYISQFIIMYSLDGKKWQTYRGNSTGTLMVFFGNVDSSGIKHNIFNPPIIARYIRLHPTHYSIRSTLRMELMGCDLNSCSMPLGMESKAISDAQITASSYFTNMFATWSPSKARLHLQGRSNAWRPQVNNPKEWLQVDFQKTMKVTGVTTQGVKSLLTSMYVKEFLISSSQDGHQWTLFFQNGKVKVFQGNQDSFTPVVNSLDPPLLTRYLRIHPQSWVHQIALRMEVLGCEAQDLY
notes: B-domain-deleted construct made in HEK293F cells
Consider B1, for which, in test [2], binding was put at a Kd of 0.21 nM, the koff worked out at 0.00095 s⁻¹ and the kon came out at 4.5e+06 M⁻¹ s⁻¹.
